Molecular target: SARS-CoV-2 nucleocapsid N-terminal domain (N-NTD) (SARS-CoV-2, UniProt P0DTC9 44-180)
Test: BLI
Details: protein: recombinant; tags: 6xHis-SUMO removed by SUMO protease; biotinylated for BLI; 15N-labeled for NMR; single strand

B1: ssRNA-16 (ssRNA)
RNA: AUAUGGAAGAGCCCUA
- Kd: 8.37 µM

From paper PMC10051649, “Suramin Disturbs the Association of the N-Terminal Domain of SARS-CoV-2 Nucleocapsid Protein with RNA”
